Measured values as given in PMC6222600, “Application of Neurokinin-1 Receptor in Targeted Strategies for Glioma Treatment. Part I: Synthesis and Evaluation of Substance P Fragments Labeled with ^99mTc and ^177Lu as Potential Receptor Radiopharmaceuticals” (Molecules : A Journal of Synthetic Chemistry and Natural …, 2018).
Read-outs that look alike come from different tables or passages of the source. Where a SMILES comes first, the peptide text is derived from it. Where no end group is shown, it is not given here. [ ]: non-standard residue; d: D form. The star is where a group is joined. DOTA = O=C(O)CN1CCN(CC(=O)O)CCN(CC(=O)*)CCN(CC(=O)O)CC1; Met(O2) = CS(=O)(=O)CC[C@H](N)C(=O)O; NS3/CN = chelator carrying 99mTc; 2Thi = N[C@@H](Cc1cccs1)C(=O)O

Columns and labels:
[1] = Lipophilicity (logP), partition in n-octanol/PBS (pH 7.4); assay type: physicochemical
Protocol: The partition coefficient was measured for each compound in a biphasic system of n-octanol/PBS (pH 7.4). The biphasic mixture was shaken (vortex, 1 min) and then centrifuged (14,000 rpm, 5 min) before the organic (n-octanol) and aqueous (PBS, pH 7.4) phases were separated. The activity of each phase (corresponding to the content of radiobioconjugate) was determined by measuring γ-radiation, using a well-type NaI(Tl) detector. P was calculated as the ratio of activity in the organic versus aqueous phases (as an average value from at least three independent measurements). Immediately after the γ-radiation measurements, the aqueous phase was analyzed by HPLC (system 2) to determine whether the tested radiobioconjugate existed in the liquid phase in an unchanged form.

[2] = assay type: in vitro ADME, human
Protocol: Stability tests of 2a–e compounds in CSF and HS were performed similarly to the previous one. The solution (0.1 mL) of isolated 2a–e radiobioconjugate in 0.1 M PBS buffer (pH 7.4), was added to 0.9 mL of CSF or HS and incubated at 37 °C. After specific time intervals (1, 2, 4 and 24 h), a small sample (0.1–0.2 mL) of the mixture was taken, mixed with ethanol (0.3–0.5 mL) and shaken vigorously to precipitate protein components as well as part of the tested radiobioconjugate bound to protein components. The sample was then centrifuged (14,000 rpm, 5 min) and the supernatant separated. The radioactivities of both supernatant and precipitate were measured using the well-type NaI(Tl) detector (Institute of Nuclear Chemistry and Technology, Warsaw, Poland). […]

[3] = biological target: T1, NK-1 receptors expressed on glioblastoma cells (U373 MG) (Homo sapiens, UniProt P25103); test: Saturation binding studies on U373 MG cells; details: 37 °C, 1.5 h, Scatchard analysis, mean ± SD of three experiments
T1 construct: host or cells: U373 MG (Uppsala) human glioblastoma astrocytoma cells
Protocol: To determine the affinity of selected radiobioconjugates: […] One day before the experiment, 8 × 10^5 cells/well were seeded in six-well plates. To determine total binding, different concentrations of peptides (15.3 pM to 100 nM) were added to the cells and incubated at 37 °C for 1.5 h. Cellular uptake was stopped by aspirating the reaction supernatant, followed by washing twice with 1 mL of cold PBS. Finally, the cells were lysed using 1 M NaOH to detach them from the well plates. To determine nonspecific binding, the cells were incubated with 1000-fold excess of unlabelled peptides. The radioactivities of collected samples with cell pellets and supernatants were measured using Perkin Elmer automatic γ-counter. The specific binding was obtained by subtracting nonspecific binding from total binding. For estimating the receptor density (Bmax) and the dissociation constant (Kd) of the receptor for the studied radiobioconjugates, the Scatchard analysis method was used. Results are means ±SD of three individual experiments.

[4] = biological target: [177Lu]DOTA-[Thi8,Met(O2)11]Substance P(5-11) 5-11 (Homo sapiens, UniProt P20366, 177Lu-DOTA, Thi8, Met(O2)11); test: radioligand binding
[5] = biological target: [177Lu]DOTA-Substance P(4-11) 4-11 (Homo sapiens, UniProt P20366, 177Lu-DOTA); test: radioligand binding
[6] = biological target: [177Lu]DOTA-[Thi8,Met(O2)11]Substance P(1-11) 1-11 (Homo sapiens, UniProt P20366, 177Lu-DOTA, Thi8, Met(O2)11); test: radioligand binding

Kd [3] [nM] | Molecule | Enzymatic biomolecule biodegradation in human serum (ITLC) [2] | logP ([1]; pH 7.4) | other results
 | [C-]#[N+]CCCC(=O)N[C@@H](CCCNC(=N)N)C(=O)N1CCC[C@H]1C(=O)N[C@@H](CCCCN)C(=O)N1CCC[C@H]1C(=O)N[C@@H](CCC(N)=O)C(=O)N[C@@H](CCC(N)=O)C(=O)N[C@@H](Cc1ccccc1)C(=O)N[C@@H](Cc1ccccc1)C(=O)NCC(=O)N[C@@H](CC(C)C)C(=O)N[C@@H](CCSC)C(N)=O [1a, [^99mTc]NS3/CN-SP(1–11), metal not drawn] |  |  | logP ([1]; n-octanol/PBS pH 7.4, [99mTc]NS3/CN-SP radiobioconjugates, read-out: logP): 0.26 ± 0.05
 | CSCC[C@H](NC(=O)[C@H](CC(C)C)NC(=O)CNC(=O)[C@H](Cc1ccccc1)NC(=O)[C@H](Cc1ccccc1)NC(=O)[C@H](CCC(N)=O)NC(=O)[C@H](CCC(N)=O)NC(=O)[C@@H]1CCCN1C(=O)[C@H](CCCCN)NC(=O)[C@@H]1CCCN1C(=O)[C@H](CCCNC(=N)N)NC(=O)CN1CCN(CC(=O)O)CCN(CC(=O)O)CCN(CC(=O)O)CC1)C(N)=O [2a, [^177Lu]DOTA-SP(1–11), metal not drawn] | only partial | -5.12 ± 0.06 | 
11.1 ± 2.7 | CC(C)C[C@H](NC(=O)CNC(=O)[C@H](Cc1cccs1)NC(=O)[C@H](Cc1ccccc1)NC(=O)[C@H](CCC(N)=O)NC(=O)[C@H](CCC(N)=O)NC(=O)[C@@H]1CCCN1C(=O)[C@H](CCCCN)NC(=O)[C@@H]1CCCN1C(=O)[C@H](CCCNC(=N)N)NC(=O)CN1CCN(CC(=O)O)CCN(CC(=O)O)CCN(CC(=O)O)CC1)C(=O)N[C@@H](CCS(C)(=O)=O)C(N)=O [2b, [^177Lu]DOTA-[Thi^8,Met(O2)^11]SP(1–11), metal not drawn] | only partial | -5.28 ± 0.02 | 
13.3 ± 1.6 | CSCC[C@H](NC(=O)[C@H](CC(C)C)NC(=O)CNC(=O)[C@H](Cc1ccccc1)NC(=O)[C@H](Cc1ccccc1)NC(=O)[C@H](CCC(N)=O)NC(=O)[C@H](CCC(N)=O)NC(=O)[C@@H]1CCCN1C(=O)CN1CCN(CC(=O)O)CCN(CC(=O)O)CCN(CC(=O)O)CC1)C(N)=O [2c, [^177Lu]DOTA-SP(4–11), metal not drawn] | only partial | -2.93 ± 0.01 | 
 | CSCC[C@H](NC(=O)[C@H](CC(C)C)NC(=O)CNC(=O)[C@H](Cc1ccccc1)NC(=O)[C@H](Cc1ccccc1)NC(=O)[C@H](CCC(N)=O)NC(=O)[C@H](CCC(N)=O)NC(=O)CN1CCN(CC(=O)O)CCN(CC(=O)O)CCN(CC(=O)O)CC1)C(N)=O [2d, [^177Lu]DOTA-SP(5–11), metal not drawn] ({DOTA}-QQFFGLM-NH2) | virtually all of the radiobiomolecule that was deposited onto the strip was degraded enzymatically | -2.68 ± 0.01 | 
48.7 ± 5.1 | CC(C)C[C@H](NC(=O)CNC(=O)[C@H](Cc1cccs1)NC(=O)[C@H](Cc1ccccc1)NC(=O)[C@H](CCC(N)=O)NC(=O)[C@H](CCC(N)=O)NC(=O)CN1CCN(CC(=O)O)CCN(CC(=O)O)CCN(CC(=O)O)CC1)C(=O)N[C@@H](CCS(C)(=O)=O)C(N)=O [2e, [^177Lu]DOTA-[Thi^8,Met(O2)^11]SP(5–11), metal not drawn] ({DOTA}-QQF[2Thi]GL[Met(O2)]-NH2) | virtually all of the radiobiomolecule that was deposited onto the strip was degraded enzymatically | -3.94 ± 0.01 | 
 | [^99mTc]NS3/CN-SP(4–11) ({NS3/CN}-PQQFFGLM; ends and bridges not checked; also: 99mTc complex of NS3/CN chelate; UniProt P20366 61-68, looked up, fragment) [1c, SP(4–11) labelled with technetium-99m via NS3/CN-BFCA] |  | 0.09 ± 0.02 | 
 | [^99mTc]NS3/CN-SP(5–11) ({NS3/CN}-QQFFGLM; ends and bridges not checked; also: 99mTc complex of NS3/CN chelate; UniProt P20366 62-68, looked up, fragment) [1d, SP(5–11) labelled with technetium-99m via NS3/CN-BFCA] |  | 1.14 ± 0.01 | 
 | [^99mTc]NS3/CN-[Thi^8,Met(O2)^11]SP(5–11) [1e] |  | 0.64 ± 0.02 | 
 | NK-1 receptor (protein) MDNVLPVDSDLSPNISTNTSEPNQFVQPAWQIVLWAAAYTVIVVTSVVGNVVVMWIILAHKRMRTVTNYFLVNLAFAEASMAAFNTVVNFTYAVHNEWYYGLFYCKFHNFFPIAAVFASIYSMTAVAFDRYMAIIHPLQPRLSATATKVVICVIWVLALLLAFPQGYYSTTETMPSRVVCMIEWPEHPNKIYEKVYHICVTVLIYFLPLLVIGYAYTVVGITLWASEIPGDSSDRYHEQVSAKRKVVKMMIVVVCTFAICWLPFHIFFLLPYINPDLYLKKFIQQVYLAIMWLAMSSTMYNPIIYCCLNDRFRLGFKHAFRCCPFISAGDYEGLEMKSTRYLQTQGSVYKVSRLETTISTVVGAHEEEPEDGPKATPSSLDLTSNCSSRSDSKTMTESFSFSSNVLS |  |  | Kd [4]: 48.7 nM; Kd [5]: 13.3 nM; Kd [6]: 11.1 nM
